T1: MSP-MS library tetradecapeptide KWLIHPTFSYnRWP
T1 chain: KWLIHPTFSYNRWP

B1: recombinant mature Sap6 (secreted aspartyl protease 6) from Candida albicans, expressed in Pichia pastoris (protein)
chain: GPVAVKLDNEIITYSADITVGSNNQKLSVIVDTGSSDLWIPDSKAICIPKWRGDCGDFCKNNGSYSPAASSTSKNLNTRFEIKYADGSYAKGNLYQDTVGIGGASVKNQLFANVWSTSAHKGILGIGFQTNEATRTPYDNLPISLKKQGIIAKNAYSLFLNSPEASSGQIIFGGIDKAKYSGSLVELPITSDRTLSVGLRSVNVMGRNVNVNAGVLLDSGTTISYFTPSIARSIIYALGGQVHFDSAGNKAYVADCKTSGTVDFQFDKNLKISVPASEFLYQLYYTNGKPYPKCEIRVRESEDNILGDNFMRSAYIVYDLDDKKISMAQVKYTSESNIVAIN
B2: recombinant mature Sap5 (secreted aspartyl protease 5) from Candida albicans, expressed in Pichia pastoris (protein)
chain: GPVAVTLHNEAITYTADITVGSDNQKLNVIVDTGSSDLWIPDSNVICIPKWRGDKGDFCKSAGSYSPASSRTSQNLNTRFDIKYGDGSYAKGKLYKDTVGIGGVSVRDQLFANVWSTSARKGILGIGFQSGEATEFDYDNLPISLRNQGIIGKAAYSLYLNSAEASTGQIIFGGIDKAKYSGSLVDLPITSEKKLTVGLRSVNVRGRNVDANTNVLLDSGTTISYFTRSIVRNILYAIGAQMKFDSAGNKVYVADCKTSGTIDFQFGNNLKISVPVSEFLFQTYYTSGKPFPKCEVRIRESEDNILGDNFLRSAYVVYNLDDKKISMAPVKYTSESDIVAIN

Target: T1, MSP-MS library tetradecapeptide …

Protein | kcat/Km (mass spectrometry-based cleavage time course)
B1 | 2.0×10^5 M^-1 s^-1 (Sap6)
B2 | 4.4×10^4 M^-1 s^-1 (Sap5)
